{"source": "a protein production outcome set (Wang et al. 2014)", "test": "label from the status in PepcDB records"}
{"sequence": "MNILLLIGGLILILLGANGLTDGAASVAKRFRIPSIVIGLTIVAFGTSAPELTVSVASALKGSADIAIGNVVGSNIFNTLMIVGCTALFAPIIITRNTLRKEIPLCILSSVVLLICANDIFLDNATENILNRVDGLLLLCFFAIFMGYTFAIAFPKSSAAPEPAAPEHTAPEEEIKLLSWWKSILYIIGGLAALIYGGQLFVNGATGIARSMGVSESIIGLTLVAGGTSLPELATSIVAALKKNPEMAIGNVIGSNLFNIFFVLGCSASITPLHLSGITNFDLFTLVGSSILLWLFGLFFAKRTITRIEGSIMILCYVAYTVVLIYNS", "values": [{"measurement": "protein production", "result": "failed"}]}
{"sequence": "MKVLLDTNIIVDFLSKRPVFFNEAEKIISKCRDGEIIGIVAVHTVSTLFYLLKKYVSPETLRDIFYNLFEIIEIGRADKNSVLEALKNTEFTDFEDGLQYQCALEEFVDCIITRNKKDFFSSKIPVYTPSEFLKSLLEHHHHHH", "values": [{"measurement": "protein production", "result": "failed"}]}
{"sequence": "MTHIQLDFSKTLEFFGEHELKQQQEIVKSIHKTIHEGTGAGSDFLGWVDLPVDYDKEEFSRIVEASKRIKENSDVLVVIGIGGSYLGARAAIEMLTSSFRNSNEYPEIVFVGNHLSSTYTKELVDYLADKDFSVNVISKSGTTTEPAVAFRLFKQLVEERYGKEEAQKRIFATTDKEKGALKQLATNEGYETFIVPDDVGGRYSVLTAVGLLPIATAGINIEAMMIGAAKAREELSSDKLEENIAYQYATIRNILYAKGYTTEMLINYEPSMQYFNEWWKQLFGESEGKDFKGIYPSSANYTTDLHSLGQYVQEGRRFLFETVVKVNHPKYDITIEKDSDDLDGLNYLAGKTIDEVNTKAFEGTLLAHTDGGVPNMVVNIPQLDEETFGYVVYFFELACAMSGYQLGVNPFNQPGVEAYKQNMFALLGKPGFEDLKKELEERL", "values": [{"measurement": "protein production", "result": "failed"}]}
{"sequence": "MDGRRMVQGLLTASLLTSIGGDLEVLASRMDLQFQRPVYTGETLVCELTVVSADPHTDGGVALVGDVAVRRVNRDDNSGQADTAAPLEHHHHHH", "values": [{"measurement": "protein production", "result": "failed"}]}
{"sequence": "MYHVTVGISEKEYDAFAIASSQTNLLHSSKWAQVKSNWQNERLGFYKDDQLVAVASILIKSLPLGFTMLYIPRGPIMDYSNKELVNFVLKTLKNFGRKKRAVFAKFDPALLLRQYHLKEENVAEEIDESRQAIDNLKSAGAQWIGPTKAISETIQPRFQANIYTKANIEENFPKHTKRLIKDAKHRGVQIYRANIDDLPKFATVVALTENRKGVALRNENYFHQLMTIYGEDAYLYLAKVNLPKRLAQFKEQLLQIQKDLSETPSHQKSRLTRLNQQEASVKQYILEFQEFSKKYPDEPVIAGILSIRFGNVLEMLYAGMDDSFRKFYPQYLLNARVFEDAFKNDIVSANLGGVEGSLNDGLTKFKSNFNPMFEEYIGEFNLAINPLLYKLANLAYTIRKKQRHSH", "values": [{"measurement": "protein production", "result": "failed"}]}
{"sequence": "AEIYNKDGNKVDLYGKAVGLHYFSKGNGENSYGGNGDMTYARLGFKGETQINSDLTGYGQWEYNFQGNNSEGADAQTGNKTRLAFAGLKYADVGSFDYGRNYGVVYDALGYTDMLPEFGGDTAYSDDFFVGRVGGVATYRNSNFFGLVDGLNFAVQYLGKNERDTARRSNGDGVGGSISYEYEGFGIVGAYGAADRTNLQEAQPLGNGKKAEQWATGLKYDANNIYLAANYGETRNATPITNKFTNTSGFANKTQDVLLVAQYQFDFGLRPSIAYTKSKAKDVEGIGDVDLVNYFEVGATYYFNKNMSTYVDYIINQIDSDNKLGVGSDDTVAVGIVYQF", "values": [{"measurement": "protein production", "result": "not failed"}]}
{"sequence": "MVPAAMRGLNLALVDIGAGTSDIAITGQGTISGYAMVPSAGDEITEALASALILDFNTAERVKRQLSTRENLTFTDVVGQRHTLAAAELMEIIKPAVTELARQVATQIILLNGKPPQAVLLIGGGSLTPGLAAALAGQLEISPERVALEHHHHHH", "values": [{"measurement": "protein production", "result": "failed"}]}
{"sequence": "MTNQEQSGDGGRLAPRPVERPPVDPAAQRTFGRPAGVEGSFLGAGQYQDQGEYAPKDQPPDPVLAEAFGRPRGTSETLQRHPTDAGALEAERLGDEDVTDDPWRDPSAPVALGTPAQPPPPPVYVNAPTGKLGLREVLFGGRVSWIALLTLALVAVLIAFVGGWVGQKTAGTVQAFTTSKVTLETGDHPDPDAGRFEQVAAAVADSVVTIEAKSKTEGSQGSGVVVDGKGYIVTNNHVISEAATKPADFQITVVFNDGKEVPANLVGRDPKTDLAVLKVDNVDNLTVAKLGDSEKIRVGEEVIAAGAPLGLRSTVTHGIVSALHRPVPLSGDGSDTDTVIDGVQTDASINHGNSGGPLINMNAEVIGINTAGKSLSDSASGLGFAIPVNEVKEVVETLVKDGKVAHPTLLVNAVTVSNSVASGAQIKNVVENGPAGKAGMLENDVVVKVGDRKVADADEFVVAVRQLKIGQEAPIEVVRDGRPLTLMVTPIGDDQKAQ", "values": [{"measurement": "protein production", "result": "failed"}]}
{"sequence": "MSSENDFVEFSSMFERIIQGRGDGLSRFLPVIVALAAREDDDDQGSTDQTTRRGDPLSPRFVMIGSRSGLDDFFSDGGKQGRSPALKSEVENMPRVVIGEDKEKYGGSCAICLDEWSKGDVAAEMPCKHKFHSKCVEEWLGRHATCPMCRYEMPVEEVEEEKKIGIWIGFSINAGDRRN", "values": [{"measurement": "protein production", "result": "failed"}]}
{"sequence": "TEDSLMPEEEFLRRNKGPVSIKVQVPNMQDKTEWKLNGQGLVFTLPLTDQVSVIKVKIHEATGMPAGKQKLQYEGIFIKDSNSLAYYNMASGAVIHLALKER", "values": [{"measurement": "protein production", "result": "not failed"}]}
{"sequence": "MENKQVSTTQAAAKEPLIGYVHSIETFGSVDGPGIRYVAFLQGCHMRCQYCHNPDTWKLNVGDQMTADEILEDAAKYRAFWGKTGGITVSGGESLVQIDFILDLFEKAKAMNISTCLDTSGQPFTREQPFFDKFERLMKVTDISLVDIKHIDSAKHKQLTQYGNENILDMIQYMAQHHDDMWIRHVLVPQRTDYDEDLKKLGDYIAKIPNDVVQKVEVLPYHTLGVKKYHEMKIKYRLEGIESPTQDRVANAEKLLHTADYNGYKTWMPLPKL", "values": [{"measurement": "protein production", "result": "failed"}]}
{"sequence": "MLTVGILGGGQLGWMTILEGRKLGFKFHVLEDKENAPACRVADRCFRTGQISEFVDSCDIITYEFEHIKDEVLEKCESKLIPNPQALYVKKSRIREKLFLKKHGFPVPEFLVIKRDEIIDALKSFKLPVVIKAEKLGYDGKGQYRIKKLEDANQVVKNHDKEESFIIEEFVKFEAEISCIGVRDREGKTYFYPQPFNKHEEGILIYNYVPYAKLKEAEEITKRLMELLDIVGVFTVEFFLLKDGRVLINEFAPRVHNTGHWTLDGAYTSQFENLLRAITEMPLGSTELKLPSGMVNILGKSYEEIPLKEILSVEGAKLYWYGKEKKPRRKVGHVNVVGRSKEEVVEKVERVFTLLKGSREKLPAP", "values": [{"measurement": "protein production", "result": "not failed"}]}
{"sequence": "MEEKKIVELEKQVEDYRQFGFVLLSLSIFLFIGLVLPPSYAPQVAAEWLIAGIGGALTFAWLFNRKVVQCQQKLFEEEDQQ", "values": [{"measurement": "protein production", "result": "failed"}]}
{"sequence": "MSSEYKKGIFLALGAYILWGILPIYWRLIDEIGAFEILAFRIIFSVIFMIFVLIIGKNQRNAFFRDVNQLVSHPVQLIAIIVAGYVITVNWGTFIWAVSNGHVLQSSLGYYINPLVSIVLALIFLKERFNKFEWLAIIFALVGVLYMTIKIGEFPFISLLLAFSFGIYGLLKKIVHIDAISSITIECIVTAPAGLIYVIYLWQQQHITFGLNISSFWLLFSGAITAIPLILFSAGAKRIPLSLTGFIQYVGPTIMFILGIFVFKEPFNTDQLITFIFIWIGIVLYSISQYVQIKKNPVVK", "values": [{"measurement": "protein production", "result": "failed"}]}
{"sequence": "MKRTIFLLMSILLLLTACGDGHKQTSSDKEQSEHKDNHNKNQVKQIATDKKVQGDNYRTILPFKESQARGLLQDNMANGYNGEDFESGLLELSKEIFPTNKYLYQDGQYLDKKTINAYLDPKYTKKEIDKMSEKEKKSKNANENLGLNPSHNGETDEEKIAKNSPAYLSNILEQDFYGNSDSKGKNIKGMTIGLAMNSVYYYKKEKDGETFSKDLSDKEIEKQGKQMASEMLSRLRENSDLKDIPIHFAIYKQSSQDSITPGEFIVGTTVEEGKTKINSWDNINEKAALIPSSTAADYDETLNNNFKQFNDNLQSYFSNFTQAVGKVKFVNKKAKQLTVDLPIDYYGQAETIGITQYVTEQAEKYFDKLDEYEIRIKDGNTPRALISKTKDDKEPQVHIYHN", "values": [{"measurement": "protein production", "result": "failed"}]}
{"sequence": "MLTQEQIDGIYEDLEHPFHFLWFDIGDAHGVSSGETDPASFEERKKDFLFLVEKLLDEGKLKLGNRKTELIIDGTTAELVEMFRKSFPASDEEMLEGLWLVTEDCPFVAVWLFEGENGEDYYGWC", "values": [{"measurement": "protein production", "result": "failed"}]}
{"sequence": "MAHHHHHHMADQNPDLKVEEALKGADIKLLLIDFDGTLFVDKDIKVPSENIDAIKEAIEKGYMVSICTGRSKVGILSAFGEENLKKMNFYGMPGVYINGTIVYDQIGYTLLDETIETDVYAELISYLVEKNLVNQTIFHRGESNYVTEDNKYADFLQKMYSENRSIIIRHNEMLKYRTMNKLMIVLDPSESKTVIGNLKQKFKNKLTIFTTYNGHAEVTKLGHDKYTGINYLLKHYNISNDQVLVVGDAENDIAMLSNFKYSFAVANATDSAKSHAKCVLPVSHREGAVAYLLKKVFDLKK", "values": [{"measurement": "protein production", "result": "not failed"}]}
